# Assays:
# [1] = molecular target: PDL1 coated on ELISA plates (UniProt Q9NZQ7 19-238, limits assumed); experiment: receptor blocking ELISA, biotinylated Fc-PD1 binding to PDL1-coated plates, streptavidin-HRP
# From the text: (§1) In both cases, binding was detected by using streptavidin linked horse radish peroxidase.
# biotinylated Fc-PDL1 = molecular target: T1, biotinylated Fc-PDL1 (UniProt Q9NZQ7 19-238, limits assumed, biotinylated (site not stated)); experiment: receptor blocking ELISA, biotinylated Fc-PDL1 binding to PD1-coated plates, streptavidin-HRP
# T1 construct: The order of the parts follows the printed name; not shown: Fc portion
# From the text: as §1
# [2] = molecular target: T2, human PDL1 transgenically expressed on DLD1 cells (human, UniProt Q9NZQ7 19-290); experiment: FACS on DLD1 cells expressing human PDL1, fluorescent anti-human-IgG detection; mean, SD 297
# T2 construct: whole, on cells; also called cell surface PDL1; PDLL
# Procedure: To test the ability of the proteins to bind cell surface PDL1, we used DLD1 cells expressing transgenically expressed human PDLL. […] Briefly, 10⁵ cells were incubated with different concentrations of the protein for 30 minutes at 4° C. Cells were washed with PBS and incubated with a fluorescent, anti-human-IgG antibody for 30 minutes at 4° C. Cells were again washed with PBS and binding was detected by FACS.
# Chain of PDL1 coated on ELISA plates (Q9NZQ7 19-238 limits assumed): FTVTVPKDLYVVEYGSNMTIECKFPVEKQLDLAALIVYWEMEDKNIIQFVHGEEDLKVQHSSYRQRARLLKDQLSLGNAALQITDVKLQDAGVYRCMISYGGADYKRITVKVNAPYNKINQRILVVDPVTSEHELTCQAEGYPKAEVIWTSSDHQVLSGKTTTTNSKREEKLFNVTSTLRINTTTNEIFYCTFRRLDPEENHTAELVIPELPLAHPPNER
# T1 sequence (Q9NZQ7 19-238 limits assumed): as above
# T2 sequence (Q9NZQ7 19-290): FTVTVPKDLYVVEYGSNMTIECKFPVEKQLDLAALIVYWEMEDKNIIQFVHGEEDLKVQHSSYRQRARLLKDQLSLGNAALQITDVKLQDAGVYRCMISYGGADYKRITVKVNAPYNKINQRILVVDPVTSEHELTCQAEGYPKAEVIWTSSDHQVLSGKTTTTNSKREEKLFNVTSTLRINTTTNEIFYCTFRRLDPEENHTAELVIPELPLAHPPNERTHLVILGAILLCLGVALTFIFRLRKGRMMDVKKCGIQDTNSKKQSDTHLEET
IC50 [1] [nM],IC50 (biotinylated Fc-PDL1) [nM],EC50 [2] [nM],Binder
16.6,92.7,,"E3 anti-PDL1 antibody (antibody, human IgG1, kappa, V domains shown) VH: QIQLVQSGAEVKKPGSSVKVSCKASGGTFSSYAISWVRQAPGQGLEWMGGIIPIFGTANYAQKFQGRVTITADKSTSTAYMELSSLRSEDTAVYYCAGGGAVADNSYWGQGTLVTVSS VL: DIRMTQSPSSLSASVGDRVTITCRASQGIRNDLGWYQQKPGKAPKLLIYAASSLQSGVPSRFSGSGSGTDFTLTISSLQPEDFATYYCLQDYNYPRTFGQGTKVEIKR"
1.53,1.26,1.96,"E1 anti-PDL1 antibody (antibody, human IgG1, kappa, V domains shown, The full-length entries begin with the secretory leader; The constant region is human IgG1 type; also called parental antibody) VH: QIQLVQSGAEVKMPGASVTISCEASGYNFISYYIHWVRQAPGQGLEWMGFVVPSGGAAGYTQKFQGRLTVTRDTSTSTVYMDLNSLTSDDTAVYYCVREMSGGWFDFWGQGTLVTVSS VL: DIVMTQSPSSLSASVGDRVTITCRASQGIRNDLGWYQQKPGKAPKLLIYAASTLQSGVPSRFSGSGSGTDFTLTISSLQAEDVAVYYCQQYYSTPLTFGPGTKVDIKR"
0.8,1.39,,"B2 anti-PDL1 antibody (antibody, human IgG1, lambda, V domains shown) VH: EVQLVESGGGLVQPGGSLRLSCAASGFTFSDYDMIWVRQAPGKGLEWVAVISYDGSNKYYADSVKGRFTISRDNSKNTLYLQMNSLRAEDTAVYYCAKEFFGAFDIWGQGTMVTVSS VL: SSELTQDPAVSVALGQTVTITCQGDSLNYYYANWFQLKPGQAPVLVLFGKNNRPSGIPDRFSGSYSGSTASLTITGAQAEDDADYYCNSRDSGGNPWVFGGGTKLTVLG"
